Measured values reported in patent publication US20170065662A1 (RESEARCH FOUNDATION FOR THE STATE UNIVERSITY OF NEW YORK, published 2017).

Assays:
[1] = target: T1, GST-Brk (full length GST-PTK6/Brk, SignalChem) (UniProt Q13882 1-451); assay: immunoprecipitation with GST antibodies, p27 immunoblot
T1 construct: mature; Bought enzyme; also called full length Brk; GST-tagged Brk; not shown: glutathione S-transferase (GST) tag
Source text: The reactions were probed by immunoblot analysis with pY88 and pY74 antibodies (FIG. 3C).

[2] = target: T2, SH3 domain of Abl displayed on phage (UniProt P00519 61-121, limits assumed); assay: phage-ELISA on immobilised GST-K2
T2 construct: domain: SH3; also called Abl-SH3

[3] = target: T3, SH3 domain of Yes displayed on phage (UniProt P07947 91-152, limits assumed); assay: phage-ELISA on immobilised GST-K2
T3 construct: domain: SH3; also called Yes-SH3
T3 sequence (P07947 91-152 limits assumed): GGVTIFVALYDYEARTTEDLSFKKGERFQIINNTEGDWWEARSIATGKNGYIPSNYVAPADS

T2 sequence (P00519 61-121 limits assumed): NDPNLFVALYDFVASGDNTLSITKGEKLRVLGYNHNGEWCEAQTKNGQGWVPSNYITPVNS

B1: F58-106 (Flag tagged K1-site containing peptide, p27 residues 58 to 106) (peptide)
peptide: RKWNFDFQNHKPLEGKYEWQEVEKGSLPEFYYRPPRPPKGACKVPAQES
notes: not shown: Flag tag
[1]
  binding result: binds

B2: GST-K2 (N-terminally GST-tagged p27 K2 PxxP peptide) (peptide)
chain: DVSGSRPAAPLIGAPA
notes: also called K2 peptide; K2 site; not shown: glutathione S-transferase (GST) tag of the pGEX-KG vector, N-terminal
[2]
  binding result: no binding
[3]
  binding result: no binding
